Test results: the supplement of paper PMC12042874
± gives the uncertainty stated by the source.

Experiment: amyloid nucleation score (Sup35N fusion, yeast selection) (log enrichment); library NNK1; higher = more nucleation; inactive = no reads after selection
Summary of the method: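 Sup35N was fused to peptides of 20 random codons and expressed in psi-negative yeast, which were induced with 100 μM copper sulfate for 24 hours and then grown on medium lacking adenine and uracil for 7 days at 30°C. Plasmid inserts from input and output were sequenced on Illumina. The nucleation score is the DiMSum log enrichment of output over input reads, centred on the mode score of non-aggregating sequences. Sequences with under 100 input reads were left out, and random libraries had three technical output replicates.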

## YRSSVL
  amyloid nucleation score: -0.514 ± 0.29

## TFYCYLSLGSHEKKADFSNN
  amyloid nucleation score: 2.21 ± 0.15

## FFFHSKDVYYGDFVHLSFAG
  amyloid nucleation score: -0.352 ± 1.2

## MFVGGRTNTQMYHMDVVPFQ
  amyloid nucleation score: 1.13 ± 0.63

## SNWYRPTDAARLSLSYSRGG
  amyloid nucleation score: -0.883 ± 1.1

## VCLPSGLFINLGVWYAAQHH
  amyloid nucleation score: 6.51 ± 0.069

## GSRHFRDSVLSDVNVWYLKN
  amyloid nucleation score: -0.026 ± 0.35

## NCRMTGCLSQRRQKECCNRI
  amyloid nucleation score: -0.755 ± 0.51

## NTSDDYIDLRYNHKGEAFEG
  amyloid nucleation score: inactive

## NMIVKSATEAANSP
  amyloid nucleation score: 1.25 ± 0.56

## MSMVNKTSWCYLFCNLRVVY
  amyloid nucleation score: -1.08 ± 0.86

## CIISGMLWLAMKRTMGIELW
  amyloid nucleation score: 2.88 ± 0.18

## VSLINRRYCPATVFGF
  amyloid nucleation score: 0.117 ± 0.4

## FVLLRIRHRFFWGSCLNPFQ
  amyloid nucleation score: 1.12 ± 0.26

## DIRCGLDGNWVSSFVRQQGS
  amyloid nucleation score: inactive

## HSLGLANYFTSHEGLVGTF
  amyloid nucleation score: inactive

## LFLHPMYMMKAASASGITVV
  amyloid nucleation score: -0.1 ± 0.57

## HLRKVGYSIYLFSR
  amyloid nucleation score: 3.83 ± 0.057

## FSSWQGMGKQYWPERIRCAD
  amyloid nucleation score: 0.425 ± 0.46

## TSWGNVDGCYNGRTLVLLDF
  amyloid nucleation score: -0.316 ± 0.67

## GDNACLLSSIEDALDSVQVL
  amyloid nucleation score: 0.99 ± 0.67

## GLPLYVHVAVEVIWL
  amyloid nucleation score: 0.058 ± 0.65

## IFFSCQVGYSAIARDARWTR
  amyloid nucleation score: 2.04 ± 0.14

## DRWWILNGTTDLSLGWVLEC
  amyloid nucleation score: 0.648 ± 0.97

## TQPLEIK
  amyloid nucleation score: -0.165 ± 1.5

## TYFWGSLIPEWWLFELYPLE
  amyloid nucleation score: 1.66 ± 0.32

## CPLAIVDTVHCRNSSSFSQ
  amyloid nucleation score: -0.488 ± 0.45

## EKRLYGYLKDHLE
  amyloid nucleation score: -0.605 ± 0.35

## MGKNMVANWILHHRHSQ
  amyloid nucleation score: -0.343 ± 0.46

## IETWCVKWFH
  amyloid nucleation score: -0.299 ± 0.32

## LSLGLSGLVQPSDGTVG
  amyloid nucleation score: -0.284 ± 0.7

## ILSLS
  amyloid nucleation score: 0.038 ± 0.18

## LMNCVAYAIVEVTCVSCMES
  amyloid nucleation score: 4.68 ± 0.082

## SFARVWVWSACA
  amyloid nucleation score: -0.559 ± 0.49

## MMGLY
  amyloid nucleation score: -0.038 ± 0.32

## IRGLLRFL
  amyloid nucleation score: 0.007 ± 0.35

## MREDIAFDFW
  amyloid nucleation score: 4.22 ± 0.15

## IYYGQGICLVFAFNLLCNVL
  amyloid nucleation score: 6.261 ± 0.048

## GSLIIHHQWFFVIAMRVSLS
  amyloid nucleation score: 0.419 ± 0.53

## IMLNLFHYGSSLQQFKTHH
  amyloid nucleation score: 7.325 ± 0.054

## THAVREFWDLGGVNEENYGW
  amyloid nucleation score: inactive

## NFSLIFENMIALFPYPARKR
  amyloid nucleation score: 7.742 ± 0.056

## CDRLIKVSYRFIGAADRRWM
  amyloid nucleation score: 1.35 ± 0.76

## GAFEDEVVLLTHTL
  amyloid nucleation score: -0.447 ± 1.1

## ELIHILDLVVTPGRFGRPVN
  amyloid nucleation score: 2.58 ± 0.36

## MKLWMEMRWGRG
  amyloid nucleation score: 5.41 ± 0.064

## IKWYAY
  amyloid nucleation score: 0.952 ± 0.68

## DREIAMVWHLSYIIFYFSES
  amyloid nucleation score: -0.993 ± 0.33

## FHMENALISLGCSSGLRQMA
  amyloid nucleation score: 0.803 ± 0.54

## DVVLVYGTITGSWVQSVWEG
  amyloid nucleation score: 0.553 ± 0.69

## EKILLG
  amyloid nucleation score: -1.8 ± 2.4

## TFTCSFTQLRQLFFFVSQGC
  amyloid nucleation score: 0.214 ± 0.46

## GTFDSN
  amyloid nucleation score: 0.045 ± 0.46

## LLAGYCQSYIQLELSNSEHV
  amyloid nucleation score: -0.241 ± 0.84

## RLIIME
  amyloid nucleation score: inactive

## HSVNYTLSQVNGSGLVFRAF
  amyloid nucleation score: 2.41 ± 0.12

## GGQRWELLFLTRGPGRRWQG
  amyloid nucleation score: 0.2 ± 1.2

## VGWASQKINYWLETSGF
  amyloid nucleation score: 0.329 ± 0.68

## PMRACHCCFGCTKSLAHDSN
  amyloid nucleation score: 0.912 ± 0.53

## RQLKVARTGLWLGFTFCIQE
  amyloid nucleation score: 0.24 ± 0.89

## SRTICGSEILTSKKTRFHAS
  amyloid nucleation score: -0.702 ± 1.7

## GVRAVLFETWCRN
  amyloid nucleation score: -0.693 ± 1

## KTWNVCALARGWECEAINVW
  amyloid nucleation score: -0.264 ± 0.3

## FLYVVARY
  amyloid nucleation score: 0.19 ± 0.71

## MFFSCGVLTILNWIKLKMAR
  amyloid nucleation score: -0.839 ± 1.1

## GHWDTVGIR
  amyloid nucleation score: -0.292 ± 0.28

## LAYVHTVKVDGPWKHMNVWY
  amyloid nucleation score: 1.22 ± 0.54

## RLTYSSCSGNLWYFRFKSVE
  amyloid nucleation score: 0.415 ± 0.67

## CWDSNALADGCAWYKVLMDI
  amyloid nucleation score: 0.229 ± 0.35

## ASKKGPWFYSAVSYGLA
  amyloid nucleation score: -0.128 ± 0.34

## GQRSLT
  amyloid nucleation score: -0.088 ± 0.24

## PWCQVRHSSYRASWSSVVVN
  amyloid nucleation score: -0.254 ± 0.48

## NRLNTTDWYSI
  amyloid nucleation score: -0.342 ± 0.74

## QEINGKAQWSPIHSISTMAA
  amyloid nucleation score: 0.33 ± 0.51

## WLESLARDSCSRFIDLHEWG
  amyloid nucleation score: -0.615 ± 1.5

## FLVKSIRTVGL
  amyloid nucleation score: 0.605 ± 0.36

## WIRDDVVMGGAECCLVLNQ
  amyloid nucleation score: 1.24 ± 0.58

## TIVGWSITIVRLHSFIFFNG
  amyloid nucleation score: 0.021 ± 0.35

## SSLASMASVDRKNHRGSGEG
  amyloid nucleation score: 1.77 ± 0.11

## KWSSRCQWDWTLLGTCLAL
  amyloid nucleation score: 0.29 ± 0.3

## IARLHT
  amyloid nucleation score: inactive

## SRNLCSQSWIRTATV
  amyloid nucleation score: 0.585 ± 0.56

## GNRGSSKV
  amyloid nucleation score: inactive

## SDMFSLNYSFDERTFWKQTS
  amyloid nucleation score: inactive

## HNWCYQNKGHVRGNKLCFRY
  amyloid nucleation score: -0.112 ± 0.63

## DFNSISDAKNCWSYLM
  amyloid nucleation score: 1.25 ± 0.13
